Source: publication doi:10.1101/2020.10.05.326918 (bioRxiv, 2020)
Each block holds one binder with its values, some of them ahead of it.

B1: MED24 (natural protein, Mus musculus (endogenous in CH12 cells), UniProt Q99K74 1-987, looked up)
chain: MKVVNLKQAILQAWKERWSDYQWAINMKKFFPKGATWDILNLAEALLEQAMIGPSPNPLILSYLKYAISSQMVSCSSVLTAISKFDDFSRDLCVQALLDIMDMFCDRLSCHGKAEECIGLCRALLSALHWLLRCTAASAERLQEGLEAGTPAPGEKQLALCLQCLEKTLSSTKNRALLHIAKLEEASSWTAIEHSLLKLGEILANLSNPQLRSQAERCGTLIRSIPSMLSVHSEQLHKTGFPTIHALILLEGTMNLTGEMQPLVEQLMMVKRMQHIPTPLFVLEIWKACFVGLIESPEGTQELKWTAFTYLKIPQVLVKLKKYFHGEKDFTEDVNCAFEFLLKLTPLLDKADQRCNCDCTNFLLQECNKQGLLSEVNFASLVGKRTADRDPQLKSSENANIQPNPGLILRAEPTVTNILKTMDADHSKSPEGLLGVLGHMLSGKSLDLLLAAAAATGKLKSFARKFINLNEFTTHGSGESTKTASVRALLFDISFLMLCHVAQTYGSEVILSESSSGEEVPFFETWMQTCMPEEGKILNPDHPCFRPDSTKVESLVALLNNSSEMKLVQMKWHEACLSISAAILEILNAWENGVLAFESIQKITDNIKGKVCSLAVCAVAWLVAHVRMLGLDEREKSLQMIRQLAGPLYSENTLQFYNERVVIMNSILEHMCADVLQQTATQIKFPSTGVDTMPYWNLLPPKRPIKEVLTDIFAKVLEKGWVDSRSIHILDTLLHMGGVYWFCNNLIKELLKETRKEHTLRAVQLLYSIFCLDMQQVTLVLLGHILPGLLTDSSKWHSLMDPPGTALAKLAVWCALSSYSSHKGQASSRQKKRHREDIEDYVSLFPVEDMQPSKLMRLLSSSDDDANILSSPTDRSMNSSLSASQLHTVNMRDPLNRVLANLFLLISSILGSRTAGPHTQFVQWFMEECVGCLEQDSRGSILQFMPFTTVSELVKVSAMSSPKVVLAITDLSLPLGRQVAAKAIAAL

Key:
Assay in all cases: cryo-EM structure
MED1 = MED1 (Mus musculus (endogenous in CH12 cells), UniProt Q925J9 1-1575)
MED1, sequence (Q925J9 whole entry): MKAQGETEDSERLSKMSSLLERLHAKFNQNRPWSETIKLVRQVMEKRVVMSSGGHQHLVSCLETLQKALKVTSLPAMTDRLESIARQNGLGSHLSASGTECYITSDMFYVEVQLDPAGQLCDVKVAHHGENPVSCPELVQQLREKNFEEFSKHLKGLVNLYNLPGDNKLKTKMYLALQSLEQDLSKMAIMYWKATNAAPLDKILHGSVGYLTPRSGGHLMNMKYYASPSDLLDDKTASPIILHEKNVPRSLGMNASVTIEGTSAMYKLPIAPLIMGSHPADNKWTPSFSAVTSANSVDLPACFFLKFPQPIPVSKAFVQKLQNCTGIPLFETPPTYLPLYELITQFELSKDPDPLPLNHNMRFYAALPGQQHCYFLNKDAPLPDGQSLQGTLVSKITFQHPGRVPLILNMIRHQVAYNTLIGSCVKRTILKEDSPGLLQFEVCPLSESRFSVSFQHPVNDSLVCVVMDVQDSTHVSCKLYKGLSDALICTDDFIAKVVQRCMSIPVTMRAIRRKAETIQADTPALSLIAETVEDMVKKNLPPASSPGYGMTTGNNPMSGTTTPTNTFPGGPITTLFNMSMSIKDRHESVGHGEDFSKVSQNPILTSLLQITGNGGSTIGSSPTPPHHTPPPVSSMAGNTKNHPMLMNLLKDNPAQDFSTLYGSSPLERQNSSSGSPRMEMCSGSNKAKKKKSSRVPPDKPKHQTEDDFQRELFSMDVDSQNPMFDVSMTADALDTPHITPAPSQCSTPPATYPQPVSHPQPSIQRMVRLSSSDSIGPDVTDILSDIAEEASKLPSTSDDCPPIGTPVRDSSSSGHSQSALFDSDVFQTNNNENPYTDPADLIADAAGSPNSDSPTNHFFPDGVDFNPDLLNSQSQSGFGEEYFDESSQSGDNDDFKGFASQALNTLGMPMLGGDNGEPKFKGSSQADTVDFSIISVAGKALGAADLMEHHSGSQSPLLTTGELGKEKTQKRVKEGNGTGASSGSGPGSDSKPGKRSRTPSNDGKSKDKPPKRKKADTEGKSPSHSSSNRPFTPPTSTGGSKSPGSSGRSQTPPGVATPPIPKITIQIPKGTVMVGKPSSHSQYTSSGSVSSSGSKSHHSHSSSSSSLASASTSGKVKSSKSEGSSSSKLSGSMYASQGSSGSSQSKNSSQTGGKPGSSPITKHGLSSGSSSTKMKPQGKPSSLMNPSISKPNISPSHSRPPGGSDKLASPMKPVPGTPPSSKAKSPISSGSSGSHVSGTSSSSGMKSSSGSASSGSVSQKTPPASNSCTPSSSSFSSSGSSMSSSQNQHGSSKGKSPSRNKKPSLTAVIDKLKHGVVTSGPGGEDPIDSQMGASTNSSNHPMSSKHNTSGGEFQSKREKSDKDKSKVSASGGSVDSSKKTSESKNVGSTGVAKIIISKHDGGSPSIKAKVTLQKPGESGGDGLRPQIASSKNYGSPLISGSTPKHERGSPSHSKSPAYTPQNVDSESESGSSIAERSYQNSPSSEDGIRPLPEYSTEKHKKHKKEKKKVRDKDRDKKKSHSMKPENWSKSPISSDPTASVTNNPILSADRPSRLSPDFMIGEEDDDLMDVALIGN

MED27 = target: T1, MED27 (Mus musculus (endogenous in CH12 cells), UniProt Q9DB40 1-311)
T1 sequence (looked up): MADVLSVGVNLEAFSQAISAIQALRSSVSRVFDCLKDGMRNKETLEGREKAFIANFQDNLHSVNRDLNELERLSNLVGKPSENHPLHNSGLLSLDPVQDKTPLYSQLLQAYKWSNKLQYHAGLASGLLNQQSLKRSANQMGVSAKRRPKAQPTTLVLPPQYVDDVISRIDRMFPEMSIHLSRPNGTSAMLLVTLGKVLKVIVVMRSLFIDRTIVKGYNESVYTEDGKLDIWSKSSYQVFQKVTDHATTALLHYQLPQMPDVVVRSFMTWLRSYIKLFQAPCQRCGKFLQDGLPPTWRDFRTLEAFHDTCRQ

MED17 = target: T2, MED17 (Mus musculus (endogenous in CH12 cells), UniProt Q8VCD5 1-649)
T2 sequence (looked up): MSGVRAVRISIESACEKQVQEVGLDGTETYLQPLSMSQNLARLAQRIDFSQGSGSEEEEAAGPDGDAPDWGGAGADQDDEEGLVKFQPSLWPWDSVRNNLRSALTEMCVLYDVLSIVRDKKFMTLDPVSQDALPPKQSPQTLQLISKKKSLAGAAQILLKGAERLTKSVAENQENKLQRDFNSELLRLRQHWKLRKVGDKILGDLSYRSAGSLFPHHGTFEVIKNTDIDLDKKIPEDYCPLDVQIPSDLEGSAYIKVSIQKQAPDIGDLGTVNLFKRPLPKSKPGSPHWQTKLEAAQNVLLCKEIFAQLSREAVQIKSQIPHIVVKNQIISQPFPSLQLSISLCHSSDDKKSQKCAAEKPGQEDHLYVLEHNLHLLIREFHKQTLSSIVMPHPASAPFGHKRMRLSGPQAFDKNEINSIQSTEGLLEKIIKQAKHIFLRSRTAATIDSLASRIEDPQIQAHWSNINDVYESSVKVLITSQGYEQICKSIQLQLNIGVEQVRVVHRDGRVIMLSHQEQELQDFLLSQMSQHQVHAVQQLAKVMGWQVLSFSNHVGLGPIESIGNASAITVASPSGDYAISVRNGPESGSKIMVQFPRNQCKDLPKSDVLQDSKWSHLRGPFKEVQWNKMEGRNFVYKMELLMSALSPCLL

MED24 = target: B1
MED23 = target: T3, MED23 (Mus musculus (endogenous in CH12 cells), UniProt Q80YQ2 1-1367)
T3 sequence (looked up): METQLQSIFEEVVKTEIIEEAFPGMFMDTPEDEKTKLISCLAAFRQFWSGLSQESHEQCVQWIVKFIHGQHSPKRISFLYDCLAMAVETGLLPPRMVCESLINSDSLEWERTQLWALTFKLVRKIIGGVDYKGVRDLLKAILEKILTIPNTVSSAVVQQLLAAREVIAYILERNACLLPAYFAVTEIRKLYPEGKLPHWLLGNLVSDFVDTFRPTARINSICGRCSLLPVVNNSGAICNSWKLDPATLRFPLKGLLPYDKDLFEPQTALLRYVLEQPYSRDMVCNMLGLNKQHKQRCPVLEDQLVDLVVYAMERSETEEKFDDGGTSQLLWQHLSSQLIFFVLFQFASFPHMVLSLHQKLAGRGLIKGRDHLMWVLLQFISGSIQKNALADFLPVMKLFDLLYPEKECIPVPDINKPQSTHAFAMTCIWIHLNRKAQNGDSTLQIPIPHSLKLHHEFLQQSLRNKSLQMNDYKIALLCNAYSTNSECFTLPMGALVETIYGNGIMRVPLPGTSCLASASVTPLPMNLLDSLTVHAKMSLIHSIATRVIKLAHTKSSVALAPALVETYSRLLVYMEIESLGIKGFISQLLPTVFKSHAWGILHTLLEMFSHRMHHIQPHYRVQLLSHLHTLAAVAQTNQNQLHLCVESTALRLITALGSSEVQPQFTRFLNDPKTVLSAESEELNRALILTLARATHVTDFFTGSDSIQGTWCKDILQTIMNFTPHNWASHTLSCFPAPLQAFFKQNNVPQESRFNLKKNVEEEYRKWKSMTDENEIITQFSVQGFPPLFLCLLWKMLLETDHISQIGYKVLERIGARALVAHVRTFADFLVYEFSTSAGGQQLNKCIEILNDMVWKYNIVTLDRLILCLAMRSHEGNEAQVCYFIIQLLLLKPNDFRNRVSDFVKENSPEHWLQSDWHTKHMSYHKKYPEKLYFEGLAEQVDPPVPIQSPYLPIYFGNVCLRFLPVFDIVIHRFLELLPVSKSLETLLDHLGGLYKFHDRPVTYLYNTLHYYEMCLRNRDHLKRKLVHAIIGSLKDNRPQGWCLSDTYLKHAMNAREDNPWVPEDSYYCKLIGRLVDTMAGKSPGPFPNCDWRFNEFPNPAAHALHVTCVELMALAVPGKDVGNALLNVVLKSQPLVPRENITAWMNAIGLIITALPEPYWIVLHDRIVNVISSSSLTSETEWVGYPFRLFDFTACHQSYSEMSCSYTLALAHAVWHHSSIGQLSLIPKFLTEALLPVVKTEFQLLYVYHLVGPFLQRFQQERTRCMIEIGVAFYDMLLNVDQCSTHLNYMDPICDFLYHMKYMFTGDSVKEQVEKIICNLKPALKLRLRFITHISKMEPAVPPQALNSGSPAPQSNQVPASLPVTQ

Binder: B1
- binding result (MED1): binds

B2: MED20 (natural protein, Mus musculus (endogenous in CH12 cells), UniProt Q9R0X0 1-212, looked up)
chain: MGVTCVSQMPVAEGKSLQQTVELLTKKLEMLGAEKQGTFCVDCETYHTAASTLGSQGQAGKLMYVMHNSEYPLSCFALFENGPCLIADTNFDVLMVKLKGFFQSAKASKIETRGTRYQYCDFLVKVGTVTMGPSARGISVEVEYGPCVVASDCWSLLLEFLQSFLGSHAPGAPTVFGNRHDAVYGPADTMIQYMELFNKIRKQQQVPVAGIR
- binding result (MED27): binds
- binding result (MED17): binds

Continued, values first:

- binding result (MED24): binds
- binding result (MED23): binds
B3: MED16 (natural protein, Mus musculus (endogenous in CH12 cells), UniProt Q6PGF3 1-828, looked up)
chain: MDLAYVCEWEKWAKSTYCPSLPLACAWSCRNLIAFTTDLRNDDQDLTHMIHILDTEHPWEVHSVSSGHSEAITCLEWDQSGSRLLSADADGQIKCWSMADHLANSWESSVGSQVEGDPIVALSWLHNGVKLALHVEKSGASSFGEKFSRVKFSPSLTLFGGKPMEGWIAVTVSGLVTVSLLKPSGQVLTSTESLCRLRGRVALADIAFTGGGNIVVAAADGSSASPVKFYKVCVSVVSEKCRIDTEILPSLFMRCTTDPNRKDRFPAITHLKFLARDMSEQVLLCASSQTSSLVECWSLRKEGLPVNNIFQQISPVVGDKQPMILKWRILSATNDLDRVSAVALPKLPISLTNTDLKVASDTQFYPGLGLALAFQDGSVHMVHRLSLQTMAVFYSSAPRSLDEPALKRPRTTCPAVHFKAMQLSWTSLALVGIDNHGKLSMLRISPSLGHPLEPKLALQHLLFLLEYCMVTGYDWWDILLHVQPGMVQSLVERLHEEYTRQKPALQQVLSTRILAMKASLCKLSPCTVARVCDYHTKLFLMAITSTLKSLLRPHFLNTPDKSPGDRLAEICAKITDVDIDKVMINLKTEEFVLDMNTLQALQQLLQWVGDFVLYLLVSLPNQGSPLRPGHSFLRDGTSLGMLRELMVVIRIWGLLKPSCLPVYTATSDTQDSMSLLFRLLTKLWICCRDEGAASEPDEGLVDECCLLPSQLLVPNLDWLPASDGLVSRLQPKQPLRLRFGRAPTLPSSTSTLQLDGLTRAPGQPKIDHLRRLHLGAYPTEECKACTRCGCVTMLKSPNKTTAVTQWEQRWIKNCLCGGLWRRVPLSCS

- binding result (MED1): binds
B4: MED4 (natural protein, Mus musculus (endogenous in CH12 cells), UniProt Q9CQA5 1-270, looked up)
chain: MAASSSGEKEKERMGGVSGMAGLGSTRERLLSALEDLEVLSRELIEMLAISRNQKLLQLEEENQVLELLIHRDGDFQELMKLALNQGKVHHEMQALEKEVEKRDSDIQQLQKQLKEAEQILATAVYQAKEKLKSIEKARKGAISSEEIIKYAHRISASNAVCAPLTWVPGDPRRPYPTDLEMRSGLLGQMNNPSTSGVNGHLPGDALAAGRLPDVLAPQYPWQSNDMSVNMLPPNHSSDFLLEPPGHNKENEDDVEVMSTDSSSSSSDSD
